Assay: yeast display, Sf9 membrane polyspecificity reagent, FACS + sequencing; frameworks hold sequencing errors
Outline: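 After 36–48 hours of galactose induction, yeast (Saccharomyces cerevisiae BJ5465) displaying a synthetic nanobody library were stained at 4 °C for 1 hour with 10% biotinylated, detergent-solubilized Sf9 membrane reagent. Streptavidin microbeads enriched the stained cells before FACS sorting into low and high (top ~1%) gates on anti-HA and streptavidin fluorescence. Each clone's polyreactivity label reflects its gate of origin.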

| Sequence | polyreactivity (PSR sort gate) |
| --- | --- |
| QVQLVESGGGLVQAGRSLRLSCAASGRTMNGNAMGWYRQAPGKERELVAAITRGGSTYYADSVKGRFTISRDNEKNSVYLQMYSLKPEVTAVYYCAADARYTGYYYWGQGTQVTVSS | high polyreactivity |
| QVQLVESGGGLVQAGRSLRLSCAASGSIFPGNAMGWYRQAPGKERELVASINWSGGSTYYADSVKGRFTISRDNAKNTVYLQMNSLKPEDTAVYYCNADPGYYDYDYWGQVTQVTVSS | low polyreactivity |
| QVQLVESGGGLVQAGRSLRLSCAASGSIFRYYAMGWYRQAPGKERELVAAISSSGGSTYYADSVKGRFTISRDNAKNTVYLQMNSLKPEDTAVYYCAAVWLSGYGDNYWGQGTQVTVSS | high polyreactivity |
| QVQLVESGGGLVQAGRSLRLSCAASGSILGYYAMGWYRQAPGKERELVAITSGDSTYYADSVNGRFTISRDNAKNTVYLQMNSLKPEDTAVYYCAAEGQNEGYDYWGQGTKVTVSS | high polyreactivity |
| QVQLVESGGGLVQAGRSLRLSCAASGSTFPVNTMGWYRQAPGKERELVAAITKNGANTYYADSVKGRFTISRDNAKNTVYLQMNSLKPEYTAVYYCAALYVYGKSYSRWLVELDYWGQGTQVTVSS | low polyreactivity |
| QVQLVESGGGLVQAGRSLRLSCAASGSTFSSYGMGWYRQAPGKDRELDASITIRGGSTYYADSVKGRFTISRDNAKTTVCIQMNSLKPEDTAVYYCAADVTNRGTWVIYGYYYWGQGTQVTVSS | low polyreactivity |
| QVQLVESGGGLVQAGRSLRLSCAASGSTFVPYAMGWYRQAPGKERELVAAITTSGGNTYYADSVKGRFTISRDNAKNTVYLQMNSLKPEDTAVYYCAADTYRRFDYWGQGTQVTVSS | low polyreactivity |
| QVQLVESGGGLVQAGRSLRLSCAASGTFIGYAMVWYRQAPGKERELVAAIDESGGSTYYADSVKGRFTISRDNAKNTVYLQMNSLKPEDTAVYYCAAYRYYSDYDYWGQGTQVTVSS | low polyreactivity |
| QVQLVESGGGLVQAGRSLRLSCAASGTIFAFYAMGWYRQAPGIVRELVAAITWRGGRTTYADSVKGRFTISRDNAKNTVYLQMNSLKPEDTAVYYCAAVIHWWYATYDYWGQGTQVTVSS | high polyreactivity |
| QVQLVESGGGLVQAGSSLRLSCAASGSTFLYYAMGWYRQAPGKEREMVAAITSSGGRTYYADSVKGRFTNSRDNAKNTDYLQMNSLKPEDTAVYYCARGWPRREQSEYDYWGQGTQVTVSS | high polyreactivity |
| QVQLVESGGGLVQAGVRLRLSCAASGFTFAGTAMGWYRQAPGKERELVAAITSGGSTYYADSVKGRFTISRDNAKNTVYLQMNSLKPEDTAVYYCAALVFRGRSFTHDYWGQGTQVTLSS | high polyreactivity |
| QVQLVESGGGLVQAGVRLRLSCAASGITFYINAMGGYRQAPGKERELVAVIDSRGSSTFYADSVKGRFTISRDTAKNTVYLQMNSLKPEDTAVYYCAAEAPSWYDRQYDYCGQGTQVTVSS | low polyreactivity |
| QVQLVESGGGLVQAGVSIRLSCAASGSIYENNAMGRYRQAPGKERELVAGITWSGGSTRYADSVKGRFTISRDNAKNTVYLQMNSLKPEDTAVYYCATDDFTYVVAKDGDYWGQGTQVTVSS | low polyreactivity |
| QVQLVESGGGLVQAGVSLRISCAAAGFTFERYAMGWYRQAPGKERELVATISRRGGSTNYADSVKGRFTISRDNAKNTVYLQMNSLKPEDTAVYYCARTLYRGKSYHVHSKYDYWGQGTQVTVSS | high polyreactivity |
| QVQLVESGGGLVQAGVSLRISCAASGFTFPEYDMGWYRQAPGKERELVATISGNGGRTYYADSVKGRFTISRYNAKNTVYLQMNSLKPEDTAVYYCAALLYIRSVVYDYWGQGTQVTVSS | low polyreactivity |
| QVQLVESGGGLVQAGVSLRLSCAASASTFTKYAMGWYRQAPGKERELVAAITASGGNTYYADSVKGRFTISRDNAKNTVYLQMYSLKPEDTAVYYCATGYHRWSSWALDYWGQGTQVTVSS | high polyreactivity |

| Sequence | polyreactivity (PSR sort gate) |
| --- | --- |
| QVQLVESGGGLVQAGVSLRLSCAASGFILGYNAMGWYRQAPAKERELVAAITRGGSTYYADSVKGRFTISRDNSKNTVYLQMNSLKPEDTAVYYCAAAYRGYSSTLWLGHWGQGTQVTVSS | high polyreactivity |
| QVQLVESGGGLVQAGVSLRLSCAASGFISPKYGMGWYRQAPGKERELVAAITSSGGSTYYADSVKGRFTISRDNAKNTVYLQMNSLKPEDTAVYYCATRQVSRLYPYRYNYWGQGTQVTVSS | high polyreactivity |
| QVQLVESGGGLVQAGVSLRLSCAASGFTFDYYTMGWYRQAPGKEREFVAAITWNGGTTNYADSVKGRFTISRDNAKNTVYLQMNSLKPEDTAVYYCAATAYWYYSNDSGRSYDYWGQGTQVTVSS | low polyreactivity |
| QVQLVESGGGLVQAGVSLRLSCAASGFTFSRYGMGWYRQTPGKERELVAAITWSGGNTNYADSVKGRFTISRDNAKNTVYLQMNSLKPEDTAVYYCNAPRGYWSQSHFDYWGQGTQVNVSS | high polyreactivity |
| QVQLVESGGGLVQAGVSLRLSCAASGGIFADYAMGWYRQAPGKERELVAAISSGGNTNYADSVKGRFTISRDNAKNTVYLQMNSLKPEDTAVYYCNRDTSYYRYVYYEGNDYWGQGTQVTVSS | low polyreactivity |
| QVQLVESGGGLVQAGVSLRLSCAASGNTFRINTKLCYRQAPGKERDLVATITRRGGSTYYADSVKGRFTISRDNAMNTVYLQMNSLNPEDSAVYYCAARVRGTGVYGGYNYWGQGTQVTVSS | high polyreactivity |
| QVQLVESGGGLVQAGVSLRLSCAASGRIFGTNAMGWYRQAPGKERELVADITSGGSTNYADSVKGRFTISRDTAKNTVYLQMNSLKPEDTALYYCAADVIGDMRWYRDEYRGQGTQVTVSS | low polyreactivity |
| QVQLVESGGGLVQAGVSLRLSCAASGRIFYRYAMGWYRPPPVKERELVAGITSGGSTYYADSVKGRFTISRDNAKNTVYLQMMSLKPEDTAVYYCAAVSYRSRTHRYPATFAYGSWGQGTQETVSS | high polyreactivity |
| QVQLVESGGGLVQAGVSLRLSCAASGRTFYVNAMGWYRQAPGKERELVAAISYSDGITYYADSVKARFTISRDNAKNTVYLQMNSLKPEDTAVYYCAAEGYHYYSQRAGVDYWGQGTQVTVSS | high polyreactivity |
| QVQLVESGGGLVQAGVSLRLSCAASGSIFRWNAMGWYRQAPGKERELVAAITGSGGSTYYADSVKGRFTISRDNAKNTVYLQMNSLKPEDTAVYYCAAKSPRILLDYWGQGTQVTVSS | low polyreactivity |
| QVQLVESGGGLVQAGVSLRLSCAASGSIFSWNAMGWYRQAPGKERELVATITWNGGRTYYADSVKGRFTISRDNAKNTVYLQMNSLKPEDTAVYYCAARYYVYWTYPYRVLSYYYWGQGTQVTVSS | high polyreactivity |
| QVQLVESGGGLVQAGVSLRLSCAASGSIFYEYAMGWYRQAPGKEREFVAAISSSGGSTYYADSEKGRFTISRDNAKNSVYLQMNSLKPEDTAAYYCNAQVGGVSFEYDYWGQGTQVTVSS | low polyreactivity |
| QVQLVESGGGLVQAGVSLRLSCAASGSLFSANAMGWYRQAPGKERELVASITGDGSTNYADSVKGRFTISRDNAMNTVYLQMNSLKPEDTAVYYCAADIGSWYDYWGQGTQVTVSS | low polyreactivity |
| QVQLVESGGGLVQAGVSLRLSCAASGTFYYAMGWYRQAPGKEREFVAAISWRGGTTYYADSVKGRFTISRDNAKNTVYLQMNSLKPEDTAVYYCATAPYVTSRRYGPYEYWGQGTQVTVSS | low polyreactivity |
| QVQLVESGGGLVQAGVSLRLSCAGSGSIFRSYTMGWYRQAPGKERELVAAISYSGGRTYYADSVMGRFTISRDNAKNTVYLQLNSLKPEDTAVYYCARRYYVTGCVGYDYWGQGTQVTVSS | high polyreactivity |

Source: the nanobody polyreactivity screen of Harvey et al. (2022)
